{"source": "paper PMC10953043", "about": "“Fluorogenic Granzyme A Substrates Enable Real‐Time Imaging of Adaptive Immune Cell Activity” (Angewandte Chemie (Weinheim an Der Bergstrasse, Germany), 2023)", "substrate": "CC[C@H](C)[C@H](NC(C)=O)C(=O)NCC(=O)N[C@@H](CC(N)=O)C(=O)N[C@@H](CCCNC(=N)N)C(=O)Nc1ccc(COc2ccc3c(c2)OC2=C(/C=C/C4=[N+](C)c5ccccc5C4(C)C)CCCC2=C3)cc1", "assay": "fluorogenic NIR assay, Michaelis-Menten fit", "type": "biochemical, Homo sapiens", "details": "Tris buffer pH 8, 37 °C, 20 nM hGzmA, cleaved after Arg"}
{"protein": "human GzmA (hGzmA), active recombinant (Homo sapiens) (protein, active recombinant enzyme (not the pro-form), dimeric) IIGGNEVTPHSRPYMVLLSLDRKTICAGALIAKDWVLTAAHCNLNKRSQVILGAHSITREEPTKQIMLVKKEFPYPCYDPATREGDLKLLQLMEKAKINKYVTILHLPKKGDDVKPGTMCQVAGWGRTHNSASWSDTLREVNITIIDRKVCNDRNHYNFNPVIGMNMVCAGSLRGGRDSCNGDSGSPLLCEGVFRGVTSFGLENKCGDPRGPGVYILLSKKHLNWIIMTIKGAV", "values": [{"measurement": "Km", "value": "6.9±1.0×10^-6 M"}, {"measurement": "kcat", "value": "0.26 ± 0.04", "unit": "s⁻¹"}]}
